Measurements: the RNAGym collection of RNA variant scans (doi:10.7554/elife.80360)

B1: HDV Ribozyme (parent)
chain: GGCCGGCAUGGUCCCAGCCUCCUCGCUGGCGCCGGCUGGGCAACAUUCCGAGGGGACCGUCCCCUCGGUAAUGGCGAAUGGGACCCA

Variants of: B1
Assay: self-cleavage, relative activity (ratio to wild type); higher = more cleavage; co-transcriptional

Row | Variant | self-cleavage
1 | GGCCGGCAUGGUCCCAGCCUCCUCGCUGGCGCCGGCUGGGCAACAUCCCGAGGGGAACGUCCCCUCGGUAAUGGCGAAUGGGACCCA | 0.875
2 | GGCCGGCAUGGUCCCAGCCUCCUCGCUGGCGCCGGCUGGGCAACAUUCCGUGGGGACCGUCCCCUCGGCAAUGGCGAAUGGGACCCA | 1.26
3 | GGCCGGCAUGGUCCCAGCCUCCUCGCUGGCGCCGGCUGGGCAACAUUCCGAGGGGACCGUCCCCUCGGUAAUGGCGAAUGGGACGCC | 0.849
4 | GGCCGGCAUGGUCCCAGCCUCCUCGCUGGCGCCGGCUGGGCAACAUUCCGGGGGGACCGUCCCGUCGGUAAUGGCGAAUGGGACCCA | 0.902
5 | GGCCGGCAUGGUCCCAGCCUGCUCGCUGGCGCCGGCUGGGCAACAUUCCGAGGGGACCGUCCCCACGGUAAUGGCGAAUGGGACCCA | 0.0536
6 | GGCCGGCAUGGUCCCAGCCUCCUCGCUGGCGCCGGCUGGGCAACAUUCCGAGGGGACCGUCCCCGCGGCAAUGGCGAAUGGGACCCA | 0.877
7 | GGCCGGCAUGGUCCCAGCCUACUCGCUGGCGCCGGCUGGGCAACAGUCCGAGGGGACCGUCCCCUCGGUAAUGGCGAAUGGGACCCA | 0.138
8 | GGCCGGCAUGGUCCCAGCCUCCUCGCUGGCGCCGGGUGGGCAAUAUUCCGAGGGGACCGUCCCCUCGGUAAUGGCGAAUGGGACCCA | 0.0426
9 | GGCCGGCAUGGUCCCAGCCUCCUAGCUGGCGCCGGCUGGGCACCAUUCCGAGGGGACCGUCCCCUCGGUAAUGGCGAAUGGGACCCA | 0.0415
10 | GGCCGGCAUGGUCCCAGCCUCCUCGUUGGCGCCGGCUGGGCAACAUUCCGAGGGGGCCGUCCCCUCGGUAAUGGCGAAUGGGACCCA | 1.08
11 | GGCCGGCAUGGUCCCAGCCUCCUCGCUGGCGCCGGCGGGGCAACAUUCCGAGGGGAGCGUCCCCUCGGUAAUGGCGAAUGGGACCCA | 0.145
12 | GGCCGGCAUGGUCCCAGCCUCCUCGCUGGCGCCGGCUGGGCAACAUUCCGAGGCGACCGUCCCCUCGGUACUGGCGAAUGGGACCCA | 0.608
13 | GGCCGGCAUGGUCCCAGCCUCCUCGCUGGAGCCGGCUGGGCAACAUUCCGAGGGGACCGUCCCCUCGGUAAUGCCGAAUGGGACCCA | 0.158
14 | GGCCGGGAUGGUCCCAGCCUCCUCGCUGGCGCCGGCUGGGCAACAUUCCGAGGGGACCGUCCCCCCGGUAAUGGCGAAUGGGACCCA | 0.0831
15 | GGCCGGCAUGGUCACAGCCUCCUCGCUGGCGCCGGCUGGGCAACAUUCCGAGGGGACCGUCCCCUCGGUAAUGGCGAAUGGGGCCCA | 0.475
16 | GGCCGGCAUGGUCCCAGCCUCCUCGCUGGCGCCGGCUGGGCAACAUUCCGAGGGGGCGGUCCCCUCGGUAAUGGCGAAUGGGACCCA | 0.911

Row | Variant | self-cleavage
17 | UGCCGGCGUGGUCCCAGCCUCCUCGCUGGCGCCGGCUGGGCAACAUUCCGAGGGGACCGUCCCCUCGGUAAUGGCGAAUGGGACCCA | 0.426
18 | GGCCGGCUUGGUCCCAGCCUCCUCGCUGGCGCGGGCUGGGCAACAUUCCGAGGGGACCGUCCCCUCGGUAAUGGCGAAUGGGACCCA | 0.0536
19 | GUCCGUCAUGGUCCCAGCCUCCUCGCUGGCGCCGGCUGGGCAACAUUCCGAGGGGACCGUCCCCUCGGUAAUGGCGAAUGGGACCCA | 0.0621
20 | GGCCGGCAUGGUCCCAGCCUCCUCGCUGGCGCCGGCUGGGCAACAUUCCGAGGAGACCGUCCCCUCGGUGAUGGCGAAUGGGACCCA | 0.79
21 | GGCCGGCAUGGUCCCAGCCUCCUCGCUGGCGCCGGCUGGGCCACAUUCCGAGGGGACCGUCCCCUCGGUGAUGGCGAAUGGGACCCA | 0.312
22 | GGCCGUCAUGGUCCCAGCCUCCUCGCUGGCGCCGGCUGGGCGACAUUCCGAGGGGACCGUCCCCUCGGUAAUGGCGAAUGGGACCCA | 0.214
23 | GGCCGGCAUGGUCCCAGCCUCCUCGCUGGCGCCGGCUGGGCAACAUUCCUAGGGGACCGUCCCCUCGGUAAUGGCGAAUAGGACCCA | 0.486
24 | GGCCGGCAUGGUCCCAGCCUCCUCGCUGGCGCCGGCUGGGCUACAUUCCGAGGGGACCGUCCCCUCGGUAAUGGCGACUGGGACCCA | 0.169
25 | GGCCGGCAUGGUCCCAGCCUCCUCGCUGGCGCCGGCUGGGCAACAUUCCGUGGGGACCGUCCCCUCGGUAACGGCGAAUGGGACCCA | 0.608
26 | GGCAGGCAUGGUCCCAGCCUCCUCGCUGGCGCCGGCUGGCCAACAUUCCGAGGGGACCGUCCCCUCGGUAAUGGCGAAUGGGACCCA | 0.0511
27 | GGCCGGCAUGGUCCCAGCCUCCUCGCUGGCGCCAGCUGGGCAACAUUCCGAGGGGACCGUCCCCUCGGUAAUGGCGAAUGGGACGCA | 0.0978
28 | GGCCGGCAUGGUCCCAGCCUACUCGCUGGCGCCGGCUGGGAAACAUUCCGAGGGGACCGUCCCCUCGGUAAUGGCGAAUGGGACCCA | 0.121
29 | GGCCGGCAUGGUCCCAGCCUCCUCGCUCGGGCCGGCUGGGCAACAUUCCGAGGGGACCGUCCCCUCGGUAAUGGCGAAUGGGACCCA | 0.101
30 | GGCCGGCAUGGUCCGAGCCACCUCGCUGGCGCCGGCUGGGCAACAUUCCGAGGGGACCGUCCCCUCGGUAAUGGCGAAUGGGACCCA | 0.128
31 | GGCCGGCAUGGUCCCAGCCUCCUCGCUGGCGCCGGCUGGGCAACAUUCCGAGGGGUCCGUCCCCUCGGUAAUGGCGACUGGGACCCA | 0.272
32 | GACCGGCAUGGUCCCAGCCUCCUCGCUGGCGCCGGCUGGGCAACAUUCCGAGGGGACCGUCCCCUCCGUAAUGGCGAAUGGGACCCA | 0.0536
